Molecular target: T1, AlgR (Pseudomonas aeruginosa PAO1) (UniProt P26275)
T1 sequence: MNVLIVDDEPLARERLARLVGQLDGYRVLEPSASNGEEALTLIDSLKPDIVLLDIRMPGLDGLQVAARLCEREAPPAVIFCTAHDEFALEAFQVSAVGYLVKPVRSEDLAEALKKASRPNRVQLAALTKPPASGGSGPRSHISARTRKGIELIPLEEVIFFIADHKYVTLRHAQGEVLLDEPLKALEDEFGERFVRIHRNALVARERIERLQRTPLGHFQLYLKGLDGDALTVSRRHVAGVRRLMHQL
Assay: EMSA
Details: EMSA: 10 mM Tris-HCl pH 7.4, 50 mM KCl, 5 mM MgCl2, 10% glycerol, 30 min, temperature not stated; 1 ug DIDC (poly dI-dC) with FITC probes in some assays …

Sequence | binding
CTGGCGATGGAAGGCACTCCAATCGAGGTCCGCAGGGCCGACCAGCGCGTCCAGCGAGAAATCGTCGAGCAAAGGGCGTCCGGCGGCCGCACGCAGGGTCAACGGCGCCAAAGGACCGCTCAGCGACGGTGCATCGGCTTCACGCACCACCAGGCTGGCCTGGCAGTCGGCAGCGATATCGGCCAGGGCCTGCTCGCGGGACTT (double strand) [pqsA CDS fragment] | binds
CGGGTCTTCGTAGGCGTAGCGGGTGCTGCCGGCCGGGCCGCGCACCGTCGTCGCATTGCCCCGTTCGTCGCGCTCGAAGGTCCAGCGGCGCTGCATCGCGTCCTCCAGCTCGACCAGCAGCCCGGTCTCTTCGTCGACGCGCTTGCGATAGCGCGCCTTGCCCGGCGACTCCTCCTCGAGC (double strand) [tse5 CDS fragment] | binds
GTACCTCGTCCGGCTCGGCGTCGGCGGTATAGCCGAGGATCAGGATCGGCGCGCGTCGCTCGCACCGTTCCTGGATGCGTATCCTGCGTGCCAGCTGATAGCCGTTCAGGCGCGGCATGTTGCAGTCGCTGATCAGCACCTCGAAGCGCTCGTCGGCCCAGAGCTCCAGCGCCA (double strand) [rocsS2 CDS fragment] | binds
